We go through two molecules from patent publication US20170210813A1 (Regeneron, published 2017).

Experiment [1] has as its target human PDGF-BB (human, UniProt P01127 82-190). Nature of the experiment: SPR (Biacore 3000), 30 nM ligand over hPDGFRb.mFc captured by anti-mouse Fc, no antibody. The source says:
Real-time binding response was monitored throughout the course of the assay and was compared to the binding response measured when PDGF ligand was applied over the derivatized captured control surface in the absence of captured antibody.
(In general: Surface plasmon resonance follows binding to a sensor surface in real time, without labels.)

Experiment [2] concerns the target T1, hPDGFRb.mmh (human, UniProt P09619 33-531).
T1 construct: Soluble monomeric construct; also called soluble human PDGFR-beta.mmh
Nature of the experiment: Octet BLI cross-competition, 25 C; hPDGFRb.mmh on anti-Penta-His tips pre-saturated with mAb-1 H4H3094P (row 5). Here is the method: (§1) A cross-competition assay was conducted to assess the ability of select antibodies to compete with one another for binding to human PDGFR-beta. […] Each PDGFR-beta.mmh-coated sensor tip was saturated for 5 min with a first anti-PDGFR-beta antibody (Mab #1; 50 μg/mL). Next, each sensor tip was saturated with a solution of a second anti-PDGFR-beta antibody (Mab #2). The real time response of Mab #2 binding to PDGR-beta.mmh pre-complexed with Mab #1 was then monitored. All assays were performed at 25° C. with a flow rate of 1000 rpm on an Octet RED384 biosensor in Octet HBST buffer according to manufacturer's instructions (ForteBio Corp., Menlo Park, Calif.). Results are illustrated in FIG. 2.

Experiment [3] addresses T2, full length human PDGFR-beta on HEK293 cells (human, UniProt P09619 33-1106). Briefly: cell-based or functional assay.
Experiment [4] concerns the target T1, hPDGFRb.mmh. Nature of the experiment: Octet BLI cross-competition, 25 C; hPDGFRb.mmh on anti-Penta-His tips pre-saturated with mAb-1 Control I (row 1). The procedure:
as §1
Background: In BLI a coated tip is dipped into the sample, and binding shifts an interference pattern.

Experiment [5] has as its target T3, human PDGFRb.hFc (human).
T3 construct: Soluble dimeric construct with human Fc; also called hPDGFRb.hFc
Briefly: SPR, mAb captured, 25 C. The procedure:
(§2) Antibodies, expressed as either mouse Fc (prefix H1M; H2M) or human Fc (prefix H4H), were captured on their respective anti-Fc sensor surfaces (Mab capture format). […] Kinetic association (kₐ) and dissociation (kd) rate constants were determined by processing and fitting the data to a 1:1 binding model using Scrubber 2.0 curve fitting software.

The target in experiment [6] is T4, Macaca fascicularis PDGFRb.mmh (Macaca fascicularis).
T4 construct: Soluble monomeric construct; also called mfPDGFRb.mmh
T4 chain: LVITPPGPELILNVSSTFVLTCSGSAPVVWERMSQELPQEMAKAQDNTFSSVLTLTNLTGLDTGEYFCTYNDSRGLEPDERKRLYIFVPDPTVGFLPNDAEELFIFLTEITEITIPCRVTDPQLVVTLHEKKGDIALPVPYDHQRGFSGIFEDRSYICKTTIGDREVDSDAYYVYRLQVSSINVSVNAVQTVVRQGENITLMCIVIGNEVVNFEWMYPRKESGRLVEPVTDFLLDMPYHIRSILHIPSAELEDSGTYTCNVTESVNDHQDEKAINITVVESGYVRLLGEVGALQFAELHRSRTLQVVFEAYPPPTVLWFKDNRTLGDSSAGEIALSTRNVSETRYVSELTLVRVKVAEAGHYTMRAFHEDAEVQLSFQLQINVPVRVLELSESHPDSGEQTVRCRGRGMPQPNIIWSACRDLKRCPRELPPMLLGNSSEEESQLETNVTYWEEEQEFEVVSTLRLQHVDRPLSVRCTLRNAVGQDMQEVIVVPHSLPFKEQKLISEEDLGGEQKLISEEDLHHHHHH
Briefly: SPR, mAb captured, 25 C. Here is the method: as §2

Experiment [7] concerns the target T1, hPDGFRb.mmh. Nature of the experiment: SPR, mAb captured, 25 C. The procedure: as §2
Target sequence in this assay (P09619 other isoform, or with tags, fused parts or gaps): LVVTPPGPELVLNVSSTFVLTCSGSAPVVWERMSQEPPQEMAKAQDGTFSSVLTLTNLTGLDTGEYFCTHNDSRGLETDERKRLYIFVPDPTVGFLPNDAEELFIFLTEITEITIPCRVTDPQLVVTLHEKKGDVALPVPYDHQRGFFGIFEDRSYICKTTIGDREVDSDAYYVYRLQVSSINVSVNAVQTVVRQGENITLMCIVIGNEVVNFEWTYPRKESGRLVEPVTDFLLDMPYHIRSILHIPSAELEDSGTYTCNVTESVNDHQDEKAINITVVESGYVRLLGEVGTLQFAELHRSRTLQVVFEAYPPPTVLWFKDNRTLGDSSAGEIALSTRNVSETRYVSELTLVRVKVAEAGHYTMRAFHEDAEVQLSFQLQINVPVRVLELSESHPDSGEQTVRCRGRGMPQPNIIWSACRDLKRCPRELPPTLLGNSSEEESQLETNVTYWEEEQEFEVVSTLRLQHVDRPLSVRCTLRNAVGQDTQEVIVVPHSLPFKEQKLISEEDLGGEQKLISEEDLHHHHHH
Experiment [8] addresses T1, hPDGFRb.mmh. Briefly: Octet BLI cross-competition, 25 C; hPDGFRb.mmh on anti-Penta-His tips pre-saturated with mAb-1 H4H3099S (row 6). Here is the method: as §1
For experiment [9], the target named is T1, hPDGFRb.mmh. Nature of the experiment: Octet BLI cross-competition, 25 C; hPDGFRb.mmh on anti-Penta-His tips pre-saturated with mAb-1 H4H3374N (row 3). Here is the method:
as §1

Experiment [10] deals with T3, human PDGFRb.hFc. Nature of the experiment: SPR, mAb captured, 37 C. Here is the method: as §2
For experiment [11], the target named is T4, Macaca fascicularis PDGFRb.mmh. Nature of the experiment: SPR, mAb captured, 37 C. Here is the method:
as §2

The target of experiment [12] is T1, hPDGFRb.mmh. Nature of the experiment: SPR, mAb captured, 37 C. The procedure:
as §2
Target sequence in this assay (P09619 other isoform, or with tags, fused parts or gaps): as above

In experiment [13] the target is T2, full length human PDGFR-beta on HEK293 …. Briefly: cell-based or functional assay. This is another data set of the same source.
For experiment [14], the target named is T1, hPDGFRb.mmh. Nature of the experiment: Octet BLI cross-competition, 25 C; hPDGFRb.mmh on anti-Penta-His tips pre-saturated with mAb-1 H4H3305N (row 8). Here is the method: as §1
Experiment [15] deals with T1, hPDGFRb.mmh. Briefly: Octet BLI cross-competition, 25 C; hPDGFRb.mmh on anti-Penta-His tips pre-saturated with mAb-1 H4H3310N (row 9). The procedure:
as §1

Experiment [16] addresses T1, hPDGFRb.mmh. Briefly: Octet BLI cross-competition, 25 C; hPDGFRb.mmh on anti-Penta-His tips pre-saturated with mAb-1 H4H3365N (row 2). Here is the method:
as §1

For experiment [17], the target named is T1, hPDGFRb.mmh. Nature of the experiment: Octet BLI cross-competition, 25 C; hPDGFRb.mmh on anti-Penta-His tips pre-saturated with mAb-1 H4H3107S (row 7). Here is the method: as §1
In experiment [18] the target is T1, hPDGFRb.mmh. Briefly: blocking ELISA, biot-hPDGFRb.mmh to coated PDGF-BB. Background: ELISA stands for enzyme-linked immunosorbent assay.
Target sequence in this assay (P09619 other isoform, or with tags, fused parts or gaps): as above

By Kd is commonly meant a measure of binding affinity in units of concentration. Higher therefore signals a looser complex. The koff is the first-order rate constant of dissociation. Read a high koff as fast dissociation. The kon is the second-order rate constant of association. Read a high kon as faster complex formation. A word on the IC50: it is the concentration that gives 50% inhibition. High values mean weaker potency in that assay, low ones greater potency in that assay.

T2 sequence (P09619 33-1106 limits assumed): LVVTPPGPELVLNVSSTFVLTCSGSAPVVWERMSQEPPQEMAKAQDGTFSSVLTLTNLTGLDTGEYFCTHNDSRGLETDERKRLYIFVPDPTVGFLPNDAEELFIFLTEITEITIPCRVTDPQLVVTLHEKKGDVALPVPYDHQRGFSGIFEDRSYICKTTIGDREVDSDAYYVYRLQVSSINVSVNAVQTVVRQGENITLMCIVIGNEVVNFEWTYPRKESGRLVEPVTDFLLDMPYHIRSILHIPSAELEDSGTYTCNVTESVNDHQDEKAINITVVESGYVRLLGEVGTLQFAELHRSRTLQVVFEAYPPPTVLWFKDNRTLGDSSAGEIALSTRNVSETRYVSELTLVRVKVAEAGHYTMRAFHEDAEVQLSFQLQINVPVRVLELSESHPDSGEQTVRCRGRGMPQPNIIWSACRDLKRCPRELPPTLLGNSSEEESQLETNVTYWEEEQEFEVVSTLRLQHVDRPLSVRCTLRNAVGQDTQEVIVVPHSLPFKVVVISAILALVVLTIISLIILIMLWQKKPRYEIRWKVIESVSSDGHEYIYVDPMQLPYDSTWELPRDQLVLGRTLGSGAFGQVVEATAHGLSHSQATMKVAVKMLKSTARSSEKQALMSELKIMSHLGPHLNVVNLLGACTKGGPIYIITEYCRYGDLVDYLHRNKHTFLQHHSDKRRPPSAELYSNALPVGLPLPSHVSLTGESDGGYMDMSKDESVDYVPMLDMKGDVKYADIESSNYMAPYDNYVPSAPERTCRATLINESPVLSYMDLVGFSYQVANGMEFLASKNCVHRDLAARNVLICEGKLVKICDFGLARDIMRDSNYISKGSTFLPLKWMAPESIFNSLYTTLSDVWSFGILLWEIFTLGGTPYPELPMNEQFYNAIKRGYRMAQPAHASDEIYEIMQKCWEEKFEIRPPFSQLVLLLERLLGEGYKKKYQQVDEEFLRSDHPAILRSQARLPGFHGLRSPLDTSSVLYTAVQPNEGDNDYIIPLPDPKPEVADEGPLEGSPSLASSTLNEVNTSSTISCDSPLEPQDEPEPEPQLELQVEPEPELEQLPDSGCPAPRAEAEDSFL
Chain of human PDGF-BB (P01127 82-190 limits assumed): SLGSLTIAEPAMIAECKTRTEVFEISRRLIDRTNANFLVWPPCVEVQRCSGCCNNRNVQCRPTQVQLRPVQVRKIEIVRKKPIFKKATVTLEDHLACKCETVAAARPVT

B1: human PDGFRb.mFc (Fc fusion)
chain: LVVTPPGPELVLNVSSTFVLTCSGSAPVVWERMSQEPPQEMAKAQDGTFSSVLTLTNLTGLDTGEYFCTHNDSRGLETDERKRLYIFVPDPTVGFLPNDAEELFIFLTEITEITIPCRVTDPQLVVTLHEKKGDVALPVPYDHQRGFFGIFEDRSYICKTTIGDREVDSDAYYVYRLQVSSINVSVNAVQTVVRQGENITLMCIVIGNEVVNFEWTYPRKESGRLVEPVTDFLLDMPYHIRSILHIPSAELEDSGTYTCNVTESVNDHQDEKAINITVVESGYVRLLGEVGTLQFAELHRSRTLQVVFEAYPPPTVLWFKDNRTLGDSSAGEIALSTRNVSETRYVSELTLVRVKVAEAGHYTMRAFHEDAEVQLSFQLQINVPVRVLELSESHPDSGEQTVRCRGRGMPQPNIIWSACRDLKRCPRELPPTLLGNSSEEESQLETNVTYWEEEQEFEVVSTLRLQHVDRPLSVRCTLRNAVGQDTQEVIVVPHSLPFKEPRGPTIKPCPPCKCPAPNLLGGPSVFIFPPKIKDVLMISLSPIVTCVVVDVSEDDPDVQISWFVNNVEVHTAQTQTHREDYNSTLRVVSALPIQHQDWMSGKEFKCKVNNKDLPAPIERTISKPKGSVRAPQVYVLPPPEEEMTKKQVTLTCMVTDFMPEDIYVEWTNNGKTELNYKNTEPVLDSDGSYFMYSKLRVEKKNWVERNSYSCSVVHEGLHNHHTTKSFSRTPGK
notes: Soluble dimeric construct with mouse Fc; also called hPDGFRb.mFc; soluble human PDGFR-beta.mFc
Turning to B1, in experiment [1], the binding result is “binds”.

B2: H4H3103S (antibody, human IgG4, V domains shown)
VH: EVQLLQSGGGLVQPGGSLRLSCAASGFTFSHYWMSWVRQGPGKGLEWVATIKKDGSESYYVDSVRGRFTISRDNAKNSLYLQMNSLRTEDTAVYYCARDIVTPNVGYYFGMDVWGQGTTVTVSS
VL: DIQMTQSPSTLSASVGDRVTITCRASQSISSWLSWYQQKPGKAPKLLIYMASTLESGVPSRFSGSGSGTDFTLTITSLQPDDFATYYCQQSNSYSRTFGHGTKLEIK
notes: human IgG4 Fc (H4H prefix)
Turning to B2, the “Response of mAb-2 Binding to hPDGFRβ.mmh Pre-Complexed with mAb-1 (nm)” value in experiment [2] was 0 nm; in experiment [4], -0.01 nm; in experiment [8] it was 0.26 nm; in experiment [9], 0.01 nm; in experiment [14] it was 0.26 nm; in experiment [15] it was 0.25 nm. Further, the “Response of mAb-2 Binding to hPDGFRβ.mmh Pre-Complexed with mAb-1 (nm)” value is 0.02 nm in experiment [16] and 0.24 nm in experiment [17]. Besides, in [3], the “Percent Internalization (Relative to Control I)” value turned out to be 87%. Also, the Kd in [5] is 0.264 nM; in experiment [6], 3.24 nM; in experiment [7] it was 3.13 nM; in experiment [10] it was 0.405 nM; in experiment [11], 10.2 nM; in experiment [12], 10.1 nM. Further, the koff in experiment [5] is 0.000164 s⁻¹; in experiment [6], 0.00116 s⁻¹; in [7], 0.00105 s⁻¹; in experiment [10] it was 0.000306 s⁻¹; in experiment [11] it was 0.00556 s⁻¹; in experiment [12] it was 0.00497 s⁻¹. Further, the kon stood at 621000 M⁻¹ s⁻¹ in experiment [5]; 359000 M⁻¹ s⁻¹ in experiment [6]; 335000 M⁻¹ s⁻¹ in experiment [7]; 757000 M⁻¹ s⁻¹ in experiment [10]; 544000 M⁻¹ s⁻¹ in experiment [11]; 492000 M⁻¹ s⁻¹ in experiment [12]. Further, the t1/2 in [5] was 70 min; in [6], 10 min; in experiment [7] it was 11 min; in experiment [10], 38 min; in experiment [11], 2 min; in experiment [12], 2 min. Besides, the “IC50, blocking PDGF-BB (250 pM) activation, SRE-luciferase” value in experiment [13] turned out to be 2e-10 M. Also, the “IC50, blocking PDGF-DD (400 pM) activation, SRE-luciferase” value in experiment [13] is 2.6e-10 M. In experiment [18], the “% Maximum Blocking” value is 90%. It took 0.24 nM to reach half-maximal inhibition in [18] (IC50).
